Laboratory results taken from US20210087270A1 (INNATE PHARMA, published 2021).

B1: antibody 10G5 (antibody, V domains shown)
VH: QVQLQQSAAELARPGASVKMSCKASGYTFTSYTMHWVKQRPGQGLEWIGYINPSSGYTENNRKFKDKTTLTADKSSSTAYMQLSSLTSEDSAVYYCARLGKGLLPPFDYWGQGTTLTVSS
VL: DIQMTQSPASLSVSVGETVTITCRASENIYSNLAWYQQKQGKSPQLLVYAATNLADGVPSRFSGSGSGTQYSLKINSLQSEDFGSYYCQHFWGTPYTFGGGTKLEIK
B2: antibody 20E9 (antibody, V domains shown)
VH: QVQLQQSGAEVARPGASVKLSCKSSGFTFTTYWMQWVKQRPGQGLEWIGAIYPGDGDTRYTQKFKGKATLTADKSSITAYMQLSSLASEDSAVYYCARRGDYGNYGMDYWGQGTSVTVSS
VL: DVLMTQTPLSLPVSLGDQASISCRSSQSIVHSNGNTYLEWYLQKPGQSPKLLIYKVSNHFSGVPDRFSGSGSGTDFTLKISRVEAEDLGVYYCFQGSHVPPTFGGGTKLEIK
B3: antibody 10F6 (antibody, V domains shown)
VH: QIQLVQSGPELKKPGETVRISCKASGYTFTIAGMQWVQKMPGKGLKWIGWINTHSGVPKYAEDFKGRFAFSLETSANIAYLQISNLKNEDTATYFCARGGDEGVMDYWGQGTSVTVS
VL: DIVMTQSHKFMSTSVGDRVSITCKASQDVSTAVAWYHQKPGQSPKLLIYWASTRHTGVPDRFSGSGSGTDYTLTISALQAEDLALYYCQQHYNTPWTFGGGTKLEIK
notes: Detected with goat anti-mouse antibody
B4: antibody 13H1 (antibody, V domains shown)
VH: EVQLQQSGPELVKPGASMKISCKASHYSFIGYTMNWVKQRHGKNLEWIGLINPYNGDTTYNQKFKGKASLTVDKSSSTAYMEILSLTSEDSAVYYCARENWGYPYAMDYWGQGTSVTVS
VL: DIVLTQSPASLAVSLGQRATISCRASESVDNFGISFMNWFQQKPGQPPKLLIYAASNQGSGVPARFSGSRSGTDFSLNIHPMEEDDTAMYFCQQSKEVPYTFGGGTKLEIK
B5: antibody 1E2 (antibody, V domains shown)
VH: QVQLQQSGAELVRPGVSVKISCKGSGYTFTDYAMNWVKQSHAKSLEWIGVISTYYGDANYNQKFKGKATMTVDKSSSTAYMELARLTSEDSAIYYCALIYYDYDGSYWGQGTTLTVS
VL: DVVMTQTPLSLPVSLGDQASISCRSSQSLVHSNGNTYLHWYLQKPGQSPKLLIYKVSNRFSGVPDRFSGSGSGTDFTLKISRVEAEDLGVYFCSQSTHVPPYTFGGGTKLEIK
B6: antibody 1C3 (antibody, V domains shown)
VH: QVQLQQSGAELARPGASVKLSCKASGYTFTSYWMQWVKQRPGQGLEWIGAIYPGDGDTRYTQKFKGKATLTADKSSSTAYMQLSSLASEDSAVYYCARRYDGYYHFDYWGQGTTLTVS
VL: DIVMTQSPSSLAVTAGEKVTMSCKSSQSLLWSVNQKNYLSWYQQKQRQPPKLLIYGASIRESWVPDRFTGSGSGTDFTLTISNVHAEDLAVYYCQHNHGSFLPLTFGSGTKLEIK

These binders were tested against T1, KIR3DL1 (CD158e1) (UniProt P43629 22-444, limits assumed) (assay: hybridoma screening (flow cytometry, incl. HEK-293T/KIR3DL1 Domain 0-eGFP)).
T1 construct: also called closely related KIR3DL1
T1 sequence (P43629 22-444 limits assumed): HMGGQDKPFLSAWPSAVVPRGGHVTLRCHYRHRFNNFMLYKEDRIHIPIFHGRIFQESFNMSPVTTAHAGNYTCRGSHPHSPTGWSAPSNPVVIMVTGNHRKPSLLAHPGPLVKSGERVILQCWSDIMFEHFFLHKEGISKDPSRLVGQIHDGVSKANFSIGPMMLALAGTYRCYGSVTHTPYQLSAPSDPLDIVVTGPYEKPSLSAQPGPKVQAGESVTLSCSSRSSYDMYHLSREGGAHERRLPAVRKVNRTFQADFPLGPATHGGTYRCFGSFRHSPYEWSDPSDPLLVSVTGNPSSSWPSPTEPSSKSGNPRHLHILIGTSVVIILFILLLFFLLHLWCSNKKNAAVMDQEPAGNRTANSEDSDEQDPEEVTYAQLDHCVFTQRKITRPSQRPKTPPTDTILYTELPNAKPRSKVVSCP
Method: Antibodies which bind KIR3DL2 but not closely related KIR3DL1 were generated by immunizing mice with recombinant KIR3DL2-Fc fusion protein, described in US patent publication number US-2015-0232556-A1. Supernatant (SN) of the growing hybridomas were tested by flow cytometry on Sezary Syndrome cell lines (HUT78, COU-L) and HEK-293T/KIR3DL2 Domain 0-eGFP. Potentially interesting hybridomas selected from the initial screening were cloned by limiting dilution techniques in 96-wells plates. The secondary screen involved selection of hybridomas of interest by testing supernatants of the subclones by flow cytometry on HUT78, COU-L, HEK-293T/KIR3DL1 Domain 0-eGFP and HEK-293T/KIR3DL2 Domain 0-eGFP. Positive subclones were injected into mice to produce ascitis and antibodies of interest were purified before being tested in a Biacore assay using rec KIR3DL2 chips, followed by various assays formats based on binding to human KIR3DL2-expressing cells.
B1: no binding.

Each binder was assayed against T2, human KIR3DL2 (CD158k), wild type, at the cell surface (human, UniProt P43630 22-455) (assay: fluoro-microscopy on HUT78 cells, 10 µg/ml, goat anti-mouse Alexa594).
T2 construct: also called WTaKIR3DL2; un-mutated wild type KIR3DL2
T2 sequence (P43630 22-455 E158D): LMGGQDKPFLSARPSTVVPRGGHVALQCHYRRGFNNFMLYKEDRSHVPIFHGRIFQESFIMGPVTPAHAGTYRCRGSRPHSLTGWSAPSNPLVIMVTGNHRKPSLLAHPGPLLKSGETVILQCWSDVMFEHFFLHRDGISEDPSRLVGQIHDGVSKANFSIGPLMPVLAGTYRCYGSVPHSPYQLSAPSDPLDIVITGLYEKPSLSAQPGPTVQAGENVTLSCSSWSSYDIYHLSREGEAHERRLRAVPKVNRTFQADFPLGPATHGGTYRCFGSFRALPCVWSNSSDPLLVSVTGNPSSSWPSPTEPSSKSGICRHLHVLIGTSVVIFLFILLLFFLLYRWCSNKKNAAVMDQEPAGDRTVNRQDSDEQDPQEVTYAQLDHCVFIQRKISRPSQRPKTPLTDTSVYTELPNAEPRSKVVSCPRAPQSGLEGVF
Method: Internalization of antibodies 10F6, 2B12, 18C6, 9E10, 10G5, 13H1, 4B5, 5H1, 1E2, 1C3 and 20E9, as well as antibody AZ158 (an anti-domain 0 mAb as comparator) and other anti-D1 antibodies as disclosed in PCT applications WO2014/044686 and WO2014/044681 were assessed by fluoro-microscopy using the HUT78 SS cell line.
Hut-78 cells were incubated during 1H at 4° C. with 10 μg/ml of the different antibodies. After this incubation cells were either fixed (t=OH) or incubated for 2H at 37° C. Cells incubated for 2H were then fixed and stained. Antibodies were stained using goat anti-mouse antibodies coupled to Alexa594 (Invitrogen, A11032). […] Pictures were acquired using an Apotome device (Zeiss) and analyzed using the Axiovision software.
B2: binds. B3: binds. B4: binds. B5: binds. B6: binds.
